{
  "source": "patent US20120014957A1",
  "about": "(AbbVie / Abbott, published 2012)",
  "binders": {"B1": {"name": "DVD1324 (bispecific antibody, human IgG1, kappa)", "heavy": "not shown", "light": "DIQMTQFPSSLSASVGDRVTITCRASQGIRNDLGWYQQKPGKAPKRLIYAASRLHRGVPSRFSGSGSGTEFTLTISSLQPEDFATYYCLQHNSYPCSFGQGTKLEIKRTVAAPDIQMTQSPSSLSASVGDRVTITCRASEDIYNALAWYQQKPGKAPKLLIYNTDTLHTGVPSRFSGSGSGTDYTLTISSLQPEDFATYFCQHYFHYPRTFGQGTKVEIKRTVAAPSVFIFPPSDEQLKSGTASVVCLLNNFYPREAKVQWKVDNALQSGNSQESVTEQDSKDSTYSLSSTLTLSKADYEKHKVYACEVTHQGLSSPVTKSFNRGEC", "notes": "DVD-Ig; also called DVD1324H; DVD1324L"}, "B2": {"name": "AB015 (antibody, V domains shown)", "VH": "EVQLVESGGGLVQPGGSLRLSCAASGFTFTDNWISWVRQAPGKGLEWVGYISPNSGFTYYADSVKGRFTISADTSKNTAYLQMNSLRAEDTAVYYCARDNFGGYFDYWGQGTLVTVSS", "VL": "DIQMTQSPSSLSASVGDRVTITCRASQDVSTAVAWYQQKPGKAPKLLIYSASFLYSGVPSRFSGSGSGTDFTLTISSLQPEDFATTYYCQQSYTGTVTFGQGTKVEIKR", "notes": "Parent antibody; also called DLL4; AB015VH"}, "B3": {"name": "AB016 (antibody, V domains shown)", "VH": "EVQLVESGGGLVQPGGSLRLSCAASGFSFSSEPISWVRQAPGKGLEWVSSITGKNGYTYYADSVKGRFTISADTSKNTAYLQMNSLRAEDTAVYYCARWGKKVYGMDVWGQGTLVTVSS", "VL": "DIQMTQSPSSLSASVGDRVTITCRASQSISSYLAWYQQKPGKAPKLLIYGASSRASGVPSRFSGSGSGTDFTLTISSLQPEDFATYYCQQYMSVPITFGQGTKVEIKR", "notes": "Parent antibody; also called NRP1"}, "B4": {"name": "AB011 (antibody, V domains shown)", "VH": "EVQLLESGGGLVQPGGSLRLSCTASGFTFSSYAMNWVRQAPGKGLEWVSAISGSGGTTFYADSVKGRFTISRDNSRTTLYLQMNSLRAEDTAVYYCAKDLGWSDSYYYYYGMDVWGQGTTVTVSS", "VL": "DIQMTQFPSSLSASVGDRVTITCRASQGIRNDLGWYQQKPGKAPKRLIYAASRLHRGVPSRFSGSGSGTEFTLTISSLQPEDFATYYCLQHNSYPCSFGQGTKLEIKR", "notes": "Parent antibody; also called IGFR; IGF1R"}, "B5": {"name": "DVD1352 (bispecific antibody, human IgG1, kappa)", "heavy": "not shown", "light": "DIQMTQSPSSLSASVGDRVTITCRASQSISSYLAWYQQKPGKAPKLLIYGASSRASGVPSRFSGSGSGTDFTLTISSLQPEDFATYYCQQYMSVPITFGQGTKVEIKRTVAAPDIQMTQSPSSLSASVGDRVTITCRASEDIYNALAWYQQKPGKAPKLLIYNTDTLHTGVPSRFSGSGSGTDYTLTISSLQPEDFATYFCQHYFHYPRTFGQGTKVEIKRTVAAPSVFIFPPSDEQLKSGTASVVCLLNNFYPREAKVQWKVDNALQSGNSQESVTEQDSKDSTYSLSSTLTLSKADYEKHKVYACEVTHQGLSSPVTKSFNRGEC", "notes": "DVD-Ig; also called DVD1352H; DVD1352L"}, "B6": {"name": "DVD1336 (bispecific antibody, human IgG1, kappa)", "heavy": "not shown", "light": "QIVLSQSPAILSPSPGEKVTMTCRASSSVSYIHWFQQKPGSSPKPWIYATSNLASGVPVRFSGSGSGTSYSLTISRVEAEDAATYYCQQWTSNPPTFGGGTKLEIKRTVAAPDIQMTQSPSSLSASVGDRVTITCRASEDIYNALAWYQQKPGKAPKLLIYNTDTLHTGVPSRFSGSGSGTDYTLTISSLQPEDFATYFCQHYFHYPRTFGQGTKVEIKRTVAAPSVFIFPPSDEQLKSGTASVVCLLNNFYPREAKVQWKVDNALQSGNSQESVTEQDSKDSTYSLSSTLTLSKADYEKHKVYACEVTHQGLSSPVTKSFNRGEC", "notes": "DVD-Ig; also called DVD1336H; DVD1336L"}, "B7": {"name": "AB001 (antibody, V domains shown)", "VH": "QVQLQQPGAELVKPGASVKMSCKASGYTFTSYNMHWVKQTPGRGLEWIGAIYPGNGDTSYNQKFKGKATLTADKSSSTAYMQLSSLTSEDSAVYYCARSTYYGGDWYFNVWGAGTTVTVSA", "VL": "QIVLSQSPAILSPSPGEKVTMTCRASSSVSYIHWFQQKPGSSPKPWIYATSNLASGVPVRFSGSGSGTSYSLTISRVEAEDAATYYCQQWTSNPPTFGGGTKLEIKR", "notes": "Parent antibody; also called CD-20; AB001VH"}},
  "key": {"IGFR on cells [1]": {"target": "T1, IGFR on cells (UniProt P08069 31-1367, limits assumed)", "T1 construct": "whole, on cells; also called IGF1R", "test": "flow cytometry on cells, DVD-Ig at 2 ug/mL", "protocol": "(§1) Stable cell lines overexpressing a cell-surface antigen of interest or human tumor cell lines were harvested from tissue culture flasks and resuspended in phosphate buffered saline (PBS) containing 5% fetal bovine serum (PBS/FBS). Prior to staining, human tumor cells were incubated on ice with (100 μl) human IgG at 5 μg/ml in PBS/FCS. 1−5×10⁵ cells were incubated with antibody or DVD-Ig (2 μg/mL) in PBS/FBS for 30-60 minutes on ice. Cells were washed twice and 100 μl of F(ab′)2 goat anti human IgG, Fcγ-phycoerythrin (1:200 dilution in PBS) (Jackson ImmunoResearch, West Grove, Pa., Cat. #109-116-170) was added. After a 30 minute incubation on ice, cells were washed twice and resuspended in PBS/FBS. Fluorescence was measured using a Becton Dickinson FACSCalibur (Becton Dickinson, San Jose, Calif.).\n(§2) The geometric mean is the n root of the multiplication product of n fluorescent signals (a1×a2×a3 . . . an). With log-transformed data the geometric mean is used to normalize the weighting of the data distribution."}, "Recombinant Human DLL4": {"target": "T2, Recombinant Human DLL4 (human, UniProt Q9NR61 27-524)", "T2 construct": "Bought reagent of the Biacore analyses", "test": "SPR (Biacore)", "protocol": "The BIACORE assay (Biacore, Inc, Piscataway, N.J.) determines the affinity of antibodies or DVD-Ig with kinetic measurements of on-rate and off-rate constants. Binding of antibodies or DVD-Ig to a target antigen (for example, a purified recombinant target antigen) was determined by surface plasmon resonance-based measurements with a Biacore® 1000 or 3000 instrument (Biacore® AB, Uppsala, Sweden) using running HBS-EP (10 mM HEPES [pH 7.4], 150 mM NaCl, 3 mM EDTA, and 0.005% surfactant P20) at 25° C. All chemicals were obtained from Biacore® AB (Uppsala, Sweden) or otherwise from a different source as described in the text. For example, approximately 5000 RU of goat anti-mouse IgG, (Fcγ), fragment specific polyclonal antibody (Pierce Biotechnology Inc, Rockford, Ill.) diluted in 10 mM sodium acetate (pH 4.5) was directly immobilized across a CM5 research grade biosensor chip using a standard amine coupling kit according to manufacturer's instructions and procedures at 25 μg/ml. Unreacted moieties on the biosensor surface were blocked with ethanolamine. Modified carboxymethyl dextran surface in flowcell 2 and 4 was used as a reaction surface. Unmodified carboxymethyl dextran without goat anti-mouse IgG in flow cell 1 and 3 was used as the reference surface. For kinetic analysis, rate equations derived from the 1:1 Langmuir binding model were fitted simultaneously to association and dissociation phases of all eight injections (using global fit analysis) with the use of Biaevaluation 4.0.1 software. Purified antibodies or DVD-Ig were diluted in HEPES-buffered saline for capture across goat anti-mouse IgG specific reaction surfaces. Antibodies or DVD-Ig to be captured as a ligand (25 μg/ml) were injected over reaction matrices at a flow rate of 5 μl/min. The association and dissociation rate constants, kₒₙ (M⁻¹s⁻¹) and koff (s⁻¹) were determined under a continuous flow rate of 25 μl/min. Rate constants were derived by making kinetic binding measurements at different antigen concentrations ranging from 10-200 nM. The equilibrium dissociation constant (M) of the reaction between antibodies or DVD-Igs and the target antigen was then calculated from the kinetic rate constants by the following formula: KD=koff/kₒₙ. Binding was recorded as a function of time and kinetic rate constants were calculated."}, "DLL4 on cells": {"target": "T3, DLL4 on cells (UniProt Q9NR61 27-685, limits assumed)", "T3 construct": "whole, on cells", "test": "flow cytometry on cells, antibody at 2 ug/mL", "protocol": "as §1, §2"}, "NRP1 on cells [2]": {"target": "T4, NRP1 on cells (UniProt O14786 22-923, limits assumed)", "T4 construct": "whole, on cells", "test": "flow cytometry on cells, antibody at 2 ug/mL", "protocol": "as §1, §2"}, "IGFR on cells [3]": {"target": "T1, IGFR on cells", "test": "flow cytometry on cells, antibody at 2 ug/mL", "protocol": "as §1, §2"}, "Recombinant Human β-NGF": {"target": "Recombinant Human β-NGF (human, UniProt P01138 122-241)", "test": "cell-based or functional assay"}, "NRP1 on cells [4]": {"target": "T4, NRP1 on cells", "test": "flow cytometry on cells, DVD-Ig at 2 ug/mL", "protocol": "as §1, §2"}, "CD-20 on cells [5]": {"target": "T5, CD-20 on cells (UniProt P11836 1-297, limits assumed)", "T5 construct": "whole, on cells", "T5 sequence (looked up)": "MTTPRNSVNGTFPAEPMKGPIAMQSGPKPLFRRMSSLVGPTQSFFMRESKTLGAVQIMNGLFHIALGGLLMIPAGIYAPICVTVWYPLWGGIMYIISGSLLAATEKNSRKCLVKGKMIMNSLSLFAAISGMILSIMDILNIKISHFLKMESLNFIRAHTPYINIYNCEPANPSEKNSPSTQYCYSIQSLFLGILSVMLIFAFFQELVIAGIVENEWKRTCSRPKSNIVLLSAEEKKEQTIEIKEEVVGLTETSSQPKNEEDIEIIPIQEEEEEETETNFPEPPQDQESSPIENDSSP", "test": "flow cytometry on cells, DVD-Ig at 2 ug/mL", "protocol": "as §1, §2"}, "CD-20 on cells [6]": {"target": "T5, CD-20 on cells", "test": "flow cytometry on cells, antibody at 2 ug/mL", "protocol": "as §1, §2"}},
  "data": [
    {"binder": "B1", "values": [
      {"measurement": "FACS Geometric Mean N-terminal", "setting": "IGFR on cells [1]", "value": 825}
    ]},
    {"binder": "B2", "values": [
      {"measurement": "Kd", "setting": "Recombinant Human DLL4", "value": 0.414, "unit": "nM"},
      {"measurement": "koff", "setting": "Recombinant Human DLL4", "value": 0.000166, "unit": "s⁻¹"},
      {"measurement": "kon", "setting": "Recombinant Human DLL4", "value": 400000, "unit": "M⁻¹ s⁻¹"},
      {"measurement": "FACS Geometric Mean", "setting": "DLL4 on cells", "value": 308}
    ]},
    {"binder": "B3", "values": [
      {"measurement": "FACS Geometric Mean", "setting": "NRP1 on cells [2]", "value": 338}
    ]},
    {"binder": "B4", "values": [
      {"measurement": "FACS Geometric Mean", "setting": "IGFR on cells [3]", "value": 535}
    ]},
    {"binder": "B5", "values": [
      {"measurement": "C-Terminal VD NGF Inhibition Assay EC50", "setting": "Recombinant Human β-NGF", "value": 0.226, "unit": "nM"},
      {"measurement": "FACS Geometric Mean N-terminal", "setting": "NRP1 on cells [4]", "value": 42}
    ]},
    {"binder": "B6", "values": [
      {"measurement": "FACS Geometric Mean N-terminal", "setting": "CD-20 on cells [5]", "value": 754}
    ]},
    {"binder": "B7", "values": [
      {"measurement": "FACS Geometric Mean", "setting": "CD-20 on cells [6]", "value": 1400}
    ]}
  ]
}
